# Source: patent US20110144038A1 (FRESENIUS MEDICAL CARE DEUTSCHLAND G M B H, published 2011)
# Positions of bridges follow the written chain, without caps; N, C: chain ends. No end group written: not given here.
# T1: human CD154 expressed on the cell surface of J558L cells (murine myeloma cell line transfected with human … (human, UniProt P29965 1-261))
# T1 construct: whole, on cells; also called CD40L; CD40 ligand
# T1 sequence (looked up): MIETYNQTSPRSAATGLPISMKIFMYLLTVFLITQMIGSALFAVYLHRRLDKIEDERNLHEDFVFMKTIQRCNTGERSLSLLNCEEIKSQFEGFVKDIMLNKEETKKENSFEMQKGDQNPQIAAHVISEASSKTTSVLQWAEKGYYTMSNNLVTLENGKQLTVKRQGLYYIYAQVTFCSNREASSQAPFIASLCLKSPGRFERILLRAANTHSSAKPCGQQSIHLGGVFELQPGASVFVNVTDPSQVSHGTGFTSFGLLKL
# Target: T1, human CD154 expressed on the cell …
# Assay: binding to CD154+ J558L cells
row,binding result,Binder
1,no binding,CLPTRWMAC [modified peptide 4.104]
2,no binding,CLPSRHMAC [modified peptide 4.102]
3,no binding,CIPTRHMAC [modified peptide 4.101]
4,no binding,CIPTRHMVC [modified peptide 4.103]

# Target: T1, human CD154 expressed on the cell …
# Assay: flow cytometry, -His6 peptide on J558L cells, PE anti-His6 antibody
# Description: FIG. 2 represents the binding of the seven peptides obtained from the human CD154-binding clones and tagged with a 6 histidines tail (-His₆) to the J558L CD154⁺ cells. […] The cells were incubated with each of the -His₆-tagged peptides and then with a phycoerythrin-conjugated secondary antibody specific for the-His₆ tail. […] For each experimental condition, 10,000 events were analyzed and the values are the mean and standard deviation of 3 different experiments. All of the peptides are capable of specifically binding to the CD154 on the J558L CD154⁺ cells and are not capable of binding to the control J558 cells.
# The peptides were synthesized and conjugated with biotin (-bio) or with a 6-histidine tail (-his₆) so as to enable in vitro and in vivo localization. […] Furthermore, a competition assay between the peptides and an anti-human CD154 fluorescein-conjugated antibody (Serotec) specifically recognizing the active site of CD154 was carried out. The J558L cells were incubated with the his₆-peptides for 30 minutes at room temperature and then with anti-human CD154 fluorescein-conjugated antibody for another 30 minutes at room temperature.
row,binding result,Binder
1,binds,"CLSAVHNMCHHHHHH (disulfide 1-9, Synthetic peptide; also called -his6 peptide) [peptide 4.11 tagged with a 6 histidines tail (-His6)]"
2,binds,"CGTHSSRICHHHHHH (disulfide 1-9, Synthetic peptide; also called -his6 peptide) [peptide 4.4 tagged with a 6 histidines tail (-His6)]"
3,binds,"CLGTQNKECHHHHHH (disulfide 1-9, Synthetic peptide; also called -his6 peptide) [peptide 4.6 tagged with a 6 histidines tail (-His6)]"
4,binds,"CTPGKPHSCHHHHHH (disulfide 1-9, Synthetic peptide; also called -his6 peptide) [peptide 4.7 = 4.12 tagged with a 6 histidines tail (-His6)]"
5,binds,"CKAASANICHHHHHH (disulfide 1-9, Synthetic peptide; also called -his6 peptide) [peptide 4.8 tagged with a 6 histidines tail (-His6)]"
6,binds,"CLPTRHMACHHHHHH (disulfide 1-9, Synthetic peptide; also called -his6 peptide) [peptide 4.10 tagged with a 6 histidines tail (-His6)]"
7,binds,"CPSGHTKACHHHHHH (disulfide 1-9, Synthetic peptide; also called -his6 peptide) [peptide 4.2 = 4.3 tagged with a 6 histidines tail (-His6)]"

# Target: T1, human CD154 expressed on the cell …
# Assay: binding to J558L cells
# Description: The murine myeloma cells transfected with human CD154, J558L, were incubated with each of the seven anti-CD154 peptides tagged with a 6 histidines tail (-His₆), and then with the anti-CD154 fluorescein-conjugated antibody. The ability of the peptides to compete with the anti-CD154 antibody for the binding to the CD154 molecule expressed on the surface of the J558L cells was evaluated by flow cytometry, as the reduction in the fluorescence intensity compared to the positive control represented by cells incubated with the anti-human CD154 fluorescein-conjugated antibody alone. […] The amino acid sequence of the control peptide differs from that of peptide 4.10 in that an arginine residue is replaced with an alanine residue at amino acid position 5.
# The peptides were synthesized and conjugated with biotin (-bio) or with a 6-histidine tail (-his₆) so as to enable in vitro and in vivo localization. […] Furthermore, a competition assay between the peptides and an anti-human CD154 fluorescein-conjugated antibody (Serotec) specifically recognizing the active site of CD154 was carried out.
row,binding result,Binder
1,no binding,CLPTAHMAC (also called peptide 4.10 with alanine at position 5) [control peptide 4.10-ala]
2,no binding,CLPTRAMAC (also called mutated peptide (position 6)) [peptide 4.10 with the residue at position 6 replaced with alanine]
3,no binding,CLPARHMAC (also called mutated peptide (position 4)) [peptide 4.10 with the residue at position 4 replaced with alanine]
